The labels stand for the following.
B1: h7E6SVG-N297Q/K222R-PEG6MMAD (antibody, V domains shown)
VH: QVQLQESGPGLVKPSETLSLTCTVSGGSISSYGVHWIRQPPGKGLEWIGVIWTSGVTDYNSALMGRVTISVDTSKNQFSLKLSSVTAADTAVYYCARDGDYDRYTMDYWGQGTLVTVSS
VL: DIVMTQSPDSLAVSLGERATINCRASKSVSTSGYSYMHWYQQKPGQPPKLLIYLASNLESGVPDRFSGSGSGTDFTLTISSLQAEDVAVYYCQHSRELPYTFGQGTKLEIK
modifications: N297Q/K222R mutations in the CH2/Hinge domains of heavy chain; conjugated with PEG6-MMAD
B2: h7E6SVG-LCQ04/K222R-vc0101 (antibody, human IgG1, V domains shown)
VH: B1 VH
VL: B1 VL
modifications: AcLys-vc-PABC-0101 on tag LCQ04 (SEQ ID NO: 79 as printed) at the C-terminus of the light chain; K222R in the heavy chain constant region
B3: h7E6SVG-LCQ03/K222R-vc0101 (antibody, human IgG1, V domains shown)
VH: B1 VH
VL: B1 VL
modifications: AcLys-vc-PABC-0101 on tag LCQ03 (SEQ ID NO: 78) at the C-terminus of the light chain; K222R in the heavy chain constant region
B4: h7E6SVG-TG6-vc0101 (antibody, human IgG1, V domains shown)
VH: B1 VH
VL: B1 VL
modifications: AcLys-vc-PABC-0101 on tag TG6 (LLQGA, SEQ ID NO: 79) at the C-terminus of the heavy chain
B5: h7E6SVG-TG6-AcLys-vc-PABC-MMAD (antibody, human IgG1, V domains shown)
VH: B1 VH
VL: B1 VL
B6: h7E6-SVGL-TG1-vcMMAD (AcLys-vcMMAD conjugate) (antibody, V domains shown)
VH: B1 VH
VL: B1 VL with G33L
B7: h7E6-SVG-TG1-vcMMAD (Aminocapryl-vcMMAD conjugate) (antibody, V domains shown)
VH: B1 VH
VL: B1 VL
B8: h7E6-SVGN-TG1-vcMMAD (AcLys-vcMMAD conjugate) (antibody, V domains shown)
VH: B1 VH
VL: B1 VL with G33N
B9: h7E6-L-TG1-vcMMAD (AcLys-vcMMAD conjugate) (antibody, V domains shown)
VH: B1 VH with S54G, V56S, G65S
VL: B1 VL with G33L
B10: h7E6SVG-K222R-LCQ3-AcLys-vc-PABC-MMAD (antibody, human IgG1, V domains shown)
VH: B1 VH
VL: B1 VL
B11: h7E6-WT-TG1-vcMMAD (AcLys-vcMMAD conjugate) (antibody, V domains shown)
VH: B1 VH with S54G, V56S, G65S
VL: B1 VL
B12: h7E6-N-TG1-vcMMAD (AcLys-vcMMAD conjugate) (antibody, V domains shown)
VH: B1 VH with S54G, V56S, G65S
VL: B1 VL with G33N
B13: 6G11-TG1-vcMMAD (AcLys-vcMMAD conjugate) (antibody, V domains shown)
VH: QVQLQQPGAELVRPGASVKLSCKASGYTFTSYWINWVKQRPGHGLEWIGNIYPSDSYSNYNQKFKDKATLTVDKSSSTAYMQVSSPTSEDSAVYYCTYGSSFDYWGQGTTVTVSS
VL: DILLTQSPAILSVSPGERVSFSCRASQTIGTSIHWYQQRTNGSPRLLIKYASESISGIPSRFSGSGSGTDFTLSINSVESEDIADYYCQQSNSWPFTFGSGTKLEIK

Changes are numbered by the printed parent chain. In names and notes the source's numbering stands. Several values for one entry are separate records, joined by “and”; a condition that tells them apart may be missing. Identical values can stand only once.

The first assay concerns the target T1, Trop-2 on Trop-2 expressing tumor cells (human, UniProt P09758 27-323).
T1 sequence: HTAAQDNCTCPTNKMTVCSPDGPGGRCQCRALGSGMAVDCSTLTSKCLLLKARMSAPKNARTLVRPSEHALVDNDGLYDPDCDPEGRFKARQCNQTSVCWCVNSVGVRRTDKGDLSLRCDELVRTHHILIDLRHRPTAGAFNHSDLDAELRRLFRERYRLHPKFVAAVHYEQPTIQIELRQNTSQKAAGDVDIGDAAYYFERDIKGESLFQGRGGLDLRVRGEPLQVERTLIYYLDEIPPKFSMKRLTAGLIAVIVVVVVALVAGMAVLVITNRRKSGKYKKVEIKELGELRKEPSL
Put plainly: cell-based or functional assay.
Consider B1, for which the “Ab IC50, cell viability (CellTiter-Glo, 96 h), A431 (Trop2 +++)” value (shortened to “Ab IC50, cell viability … A431 (Trop2 +++)”) came to 0.07 nM; the “Ab IC50, cell viability (CellTiter-Glo, 96 h), BxPC3 (Trop2 ++)” value (from here on “Ab IC50, cell viability … BxPC3 (Trop2 ++)”) was 0.03 nM; the “Ab IC50, cell viability (CellTiter-Glo, 96 h), Calu-3 (Trop2 ++)” value (shortened to “Ab IC50, cell viability … Calu-3 (Trop2 ++)”) came out at 0.5 nM; the “Ab IC50, cell viability (CellTiter-Glo, 96 h), Colo205 (Trop2 +)” value (shortened to “Ab IC50, cell viability … (Trop2 +)”) was 21.1 nM. Besides, the “Ab IC50, cell viability (CellTiter-Glo, 96 h), MDA-MB-468 (Trop2 ++)” value amounted to 0.19 nM; the “Ab IC50, cell viability (CellTiter-Glo, 96 h), NCI-H292 (Trop2 ++)” value (shortened to “Ab IC50, cell viability … NCI-H292 (Trop2 ++)”) came to 0.03 nM; the “Ab IC50, cell viability (CellTiter-Glo, 96 h), NCI-H1650 (Trop2 ++)” value is 0.38 nM; the “Ab IC50, cell viability (CellTiter-Glo, 96 h), OVCAR3 (Trop2 +++)” value stood at 0.98 nM. Besides, the “Ab IC50, cell viability (CellTiter-Glo, 96 h), SKBR3 (Trop2 +/++)” value was found to be 0.08 nM.
Take B2: the “Ab IC50, cell viability … BxPC3 (Trop2 ++)” value stood at 0.11 nM; the “Ab IC50, cell viability … Calu-3 (Trop2 ++)” value amounted to 1.51 nM; the “Ab IC50, cell viability … NCI-H292 (Trop2 ++)” value was found to be 1.84 nM.
With B3, the “Ab IC50, cell viability … A431 (Trop2 +++)” value was 0.03 nM; the “Ab IC50, cell viability … BxPC3 (Trop2 ++)” value was determined as 0.13 nM; the “Ab IC50, cell viability … (Trop2 +)” value was found to be 174 nM.
In the case of B4, the “Ab IC50, cell viability … A431 (Trop2 +++)” value came to 0.12 nM; the “Ab IC50, cell viability … BxPC3 (Trop2 ++)” value was 0.32 nM; the “Ab IC50, cell viability … Calu-3 (Trop2 ++)” value is 0.53 nM; the “Ab IC50, cell viability … (Trop2 +)” value came out at 32.9 nM. Also, the “Ab IC50, cell viability (CellTiter-Glo, 96 h), MDA-MB-468 (Trop2 ++)” value was found to be 0.77 nM; the “Ab IC50, cell viability … NCI-H292 (Trop2 ++)” value worked out at 0.63 nM; the “Ab IC50, cell viability (CellTiter-Glo, 96 h), NCI-H1650 (Trop2 ++)” value worked out at 1.92 nM; the “Ab IC50, cell viability (CellTiter-Glo, 96 h), OVCAR3 (Trop2 +++)” value was determined as 0.56 nM. Further, the “Ab IC50, cell viability (CellTiter-Glo, 96 h), SKBR3 (Trop2 +/++)” value came out at 0.42 nM.

In a further assay the target is T1, Trop-2 on Trop-2 expressing tumor cells. Put plainly: cell-based or functional assay. The source holds these as a separate data set.
As for B5, the “Ab-IC50, cell viability (CellTiter-Glo, 96 h), A431 (Trop-2+++)” value (“Ab-IC50, cell viability … (Trop-2+++)” for short) was 0.011 µg/mL and 0.072 nM; the “Ab-IC50, cell viability (CellTiter-Glo, 96 h), BxPC3 (Trop-2++)” value (shortened to “Ab-IC50, cell viability … (Trop-2++)”) is 0.032 µg/mL and 0.214 nM; the “Ab-IC50, cell viability (CellTiter-Glo, 96 h), Colo205 (Trop-2+)” value (“Ab-IC50, cell viability … (Trop-2+)” below) was 0.209 µg/mL and 1.39 nM.
Turning to B6, the “Ab-IC50, cell viability … (Trop-2+++)” value is 0.018 µg/mL and 0.12 nM; the “Ab-IC50, cell viability (CellTiter-Glo, 96 h), CAPAN-2 (Trop-2+/++)” value (shortened to “Ab-IC50, cell viability … (Trop-2+/++)”) is 2.44 µg/mL and 16.3 nM; the “Ab-IC50, cell viability … (Trop-2+)” value is 0.052 µg/mL and 0.345 nM.
Turning to B7, the “Ab-IC50, cell viability … (Trop-2++)” value is 0.034 µg/mL and 0.229 nM.
B8: the “Ab-IC50, cell viability … (Trop-2+++)” value is 0.023 µg/mL and 0.153 nM; the “Ab-IC50, cell viability … (Trop-2++)” value is 0.051 µg/mL and 0.337 nM; the “Ab-IC50, cell viability … (Trop-2+/++)” value was 2.01 µg/mL and 13.4 nM; the “Ab-IC50, cell viability … (Trop-2+)” value was 0.083 µg/mL and 0.552 nM.
Turning to B9, the “Ab-IC50, cell viability … (Trop-2+++)” value is 0.02 µg/mL and 0.132 nM; the “Ab-IC50, cell viability … (Trop-2++)” value was 0.035 µg/mL and 0.232 nM; the “Ab-IC50, cell viability … (Trop-2+/++)” value is 2.03 µg/mL and 13.5 nM; the “Ab-IC50, cell viability … (Trop-2+)” value was 0.082 µg/mL and 0.549 nM.
As for B10, the “Ab-IC50, cell viability … (Trop-2+++)” value was 0.01 µg/mL and 0.07 nM; the “Ab-IC50, cell viability … (Trop-2++)” value was 0.014 µg/mL and 0.092 nM; the “Ab-IC50, cell viability … (Trop-2+)” value was 2.68 µg/mL and 17.9 nM.
As for B11, the “Ab-IC50, cell viability … (Trop-2+++)” value was 0.022 µg/mL and 0.144 nM; the “Ab-IC50, cell viability … (Trop-2++)” value was 0.025 µg/mL and 0.169 nM; the “Ab-IC50, cell viability … (Trop-2+/++)” value was 1.96 µg/mL and 13 nM; the “Ab-IC50, cell viability … (Trop-2+)” value is 0.445 µg/mL and 2.97 nM.
B12: the “Ab-IC50, cell viability … (Trop-2+++)” value was 0.024 µg/mL and 0.163 nM; the “Ab-IC50, cell viability … (Trop-2+/++)” value is 2.02 µg/mL and 13.5 nM; the “Ab-IC50, cell viability … (Trop-2+)” value is 0.1 µg/mL and 0.668 nM.
Take B13: the “Ab-IC50, cell viability … (Trop-2+++)” value was 0.03 µg/mL and 0.197 nM; the “Ab-IC50, cell viability … (Trop-2+)” value is 0.379 µg/mL and 2.52 nM.

The record behind these values is patent US20140357844A1 (RINAT NEUROSCIENCE, published 2014).
